Columns and labels:
[1] = biological target: T1, mCherry-Vimentin with C-terminal BC2 tag (mCherry-VIMBC2T) (human, UniProt P08670 1-466); experiment: immunoprecipitation from HEK293T lysate, immunoblot with anti-vimentin
T1 construct: Expressed in HEK293T or HeLa cells; also called mCherry-VimentinBC2T; not shown: mCherry fluorescent protein
Method: HEK293T cells transiently expressing eGFP, eGFPBC2T or BC2TeGFP, eGFP-PCNA, eGFP-PCNABC2T, mCherry-Vimentin, mCherry-VimentinBC2T were washed and harvested in phosphate buffered saline (PBS), snap-frozen in liquid nitrogen and stored at −20° C. Cell pellets were homogenized in 200 μl lysis buffer (10 mM Tris/Cl pH 7.5, 150 mM NaCl, 0.5% NP40, 1 μg DNaseI, 2 mM MgCl₂, 2 mM PMSF, 1× protease inhibitor mix M (Serva) by repeated pipetting for 40 min on ice. After a centrifugation step (10 min at 18.000×g) the protein concentration of each lysate was determined using a Pierce BCA Protein Assay Kit (Thermo Fisher Scientific) according to manufacturer's protocol and the protein solutions were adjusted with dilution buffer (10 mM Tris/Cl pH 7.5, 150 mM NaCl, 2 mM PMSF) to a concentration of 1 mg/ml. 2% of the supernatant were added to SDS-containing sample buffer (referred to as input). […] After a centrifugation step (2 min, 2500×g) the precleared supernatant was transferred to a new cup. 2% were added to SDS-containing sample buffer (referred to as non-bound). […] Samples were analyzed by SDS-PAGE followed by immunoblotting. Immunoblots were probed with indicated antibodies.

[2] = biological target: T2, β-catenin peptide 1-15 (human, UniProt P35222); experiment: pepscan: 15-mer peptide on OVA-microspheres, biotinylated BC2-Nb, streptavidin-PE
T2 construct: synthetic 15-mer; additional N-terminal cysteine for coupling; also called Start 1 End 15
T2 peptide (looked up): MATQADLMELDMAME
Excerpt: (§1) As negative controls, microspheres comprising Ovalbumin and the Myc-peptide ([…]) covalently coupled to OVA-microspheres were used. […] Evaluation of the PE-signals were done in a Flexmap 3D (Luminex).

[3] = biological target: T3, β-catenin peptide 41-55 (human, UniProt P35222); experiment: as above
T3 construct: synthetic 15-mer; additional N-terminal cysteine for coupling; also called Start 41 End 55
T3 peptide (looked up): TTAPSLSGKGNPEEE
Excerpt: as §1

[4] = biological target: T4, β-catenin peptide 45-59 (human, UniProt P35222); experiment: as above
T4 construct: synthetic 15-mer; additional N-terminal cysteine for coupling; also called Start 45 End 59
T4 peptide (looked up): SLSGKGNPEEEDVDT
Excerpt: as §1

[5] = biological target: T5, β-catenin peptide 69-83 (human, UniProt P35222); experiment: as above
T5 construct: synthetic 15-mer; additional N-terminal cysteine for coupling; also called Start 69 End 83
T5 peptide (looked up): GFSQSFTQEQVADID
Excerpt: as §1

[6] = biological target: T6, β-catenin peptide 105-119 (human, UniProt P35222); experiment: as above
T6 construct: synthetic 15-mer; additional N-terminal cysteine for coupling
T6 peptide (looked up): EGMQIPSTQFDAAHP
Excerpt: as §1

[7] = biological target: T7, BC2T Q12H library peptide (human); experiment: peptide library pulldown on immobilized Nb, LC-MS of supernatant; ratio vs GFP-Nb control (1 = not captured, 0 = captured)
T7 peptide: Ac-PDRKAAVSHWQH-NH2
In short: (§2)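 Unbound peptide left in supernatant after 1 h pulldown in PBS/0.01% CHAPS measured by reversed-phase LC-MS (8–30% eluent B gradient, 20 min).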

[8] = biological target: T8, BC2T S8P library peptide (human); experiment: as above
T8 construct: also called BC2TS8X: P
T8 peptide: Ac-PDRKAAVPHWQQ-NH2
In short: as §2

[9] = biological target: T9, BC2T H9W library peptide (human); experiment: as above
T9 peptide: Ac-PDRKAAVSWWQQ-NH2
In short: as §2

[10] = biological target: T10, BC2T H9Q library peptide (human); experiment: as above
T10 peptide: Ac-PDRKAAVSQWQQ-NH2
In short: as §2

[11] = biological target: T11, BC2T W10(I/L) library peptide, version 2 (N-terminal acetyl, C-terminal amide); experiment: as above
T11 construct: Ile and Leu versions are isobaric; two versions resolved but not assigned; also called BC2TW10X: I/L2
In short: as §2

[12] = biological target: T12, BC2T Q11(I/L) library peptide, version 1 (N-terminal acetyl, C-terminal amide); experiment: as above
T12 construct: Ile and Leu versions are isobaric; two versions resolved but not assigned; also called I/L1
In short: as §2

[13] = biological target: T13, BC2T Q12A library peptide (human); experiment: as above
T13 peptide: Ac-PDRKAAVSHWQA-NH2
In short: as §2

T1 sequence (P08670 other isoform, or with tags, fused parts or gaps): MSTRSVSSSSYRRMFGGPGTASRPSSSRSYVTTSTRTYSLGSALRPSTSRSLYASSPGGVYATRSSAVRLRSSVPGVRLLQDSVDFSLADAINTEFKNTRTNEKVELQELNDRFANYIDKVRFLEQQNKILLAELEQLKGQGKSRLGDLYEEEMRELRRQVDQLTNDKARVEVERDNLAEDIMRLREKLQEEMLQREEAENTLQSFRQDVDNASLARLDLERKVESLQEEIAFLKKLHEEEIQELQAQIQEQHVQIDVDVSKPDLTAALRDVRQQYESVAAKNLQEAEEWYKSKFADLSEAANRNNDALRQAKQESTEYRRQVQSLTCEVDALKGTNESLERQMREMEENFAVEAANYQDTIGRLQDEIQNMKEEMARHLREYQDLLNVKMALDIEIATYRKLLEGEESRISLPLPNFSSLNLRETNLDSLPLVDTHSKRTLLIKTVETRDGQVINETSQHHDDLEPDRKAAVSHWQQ

B1: BC2 nanobody (VHH)
VHH: QVQLVESGGGLVQPGGSLTLSCTASGFTLDHYDIGWFRQAPGKEREGVSCINNSDDDTYYADSVKGRFTIFMDNAKDTVYLQMNSLKPEDTAIYYCAEARGCKRGRYEYDFWGQGTQVTVSS
notes: Alpaca VHH, 122 aa; also called BC2-Nb; BC2 nanotrap (BC2-Nb immobilized on agarose/Sepharose beads); not shown: C-terminal 6xHis-tag added by the pHEN6 vector
binding result [1]: binds
binding result [2]: no binding (tested: 1 µg/ml BC2-Nb)
binding result [3]: no binding (tested: 1 µg/ml BC2-Nb)
binding result [4]: no binding (tested: 1 µg/ml BC2-Nb)
binding result [5]: no binding (tested: 1 µg/ml BC2-Nb)
binding result [6]: no binding (tested: 1 µg/ml BC2-Nb)

B2: BC2-Nb(R106E) (VHH)
VHH: QVQLVESGGGLVQPGGSLTLSCTASGFTLDHYDIGWFRQAPGKEREGVSCINNSDDDTYYADSVKGRFTIFMDNAKDTVYLQMNSLKPEDTAIYYCAEARGCKRGEYEYDFWGQGTQVTVSS
notes: Headlock mutant; immobilized on beads in the library pulldown
ratio [7]: 0.1
ratio [8]: 1
ratio [9]: 0.1
ratio [10]: 0.3
ratio [11]: 1
ratio [12]: 0.2
ratio [13]: 0.1

— US20170137467A1 (CHROMOTEK, published 2017)
